Results on 74 sequences are retold here after the supplement of paper PMC12636428.

This data set relates to Saccharomyces cerevisiae. The data set is described as follows: transcriptional activation domain activity (GFP:mCherry ratio, weighted mean of sorted bins, harmonized to initial dataset scale) (arbitrary fluorescence ratio units); higher = stronger transcriptional activation. As to conditions: beta-estradiol 1 µM; induction time 4 h. The method, boiled down: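 Each value is an activation activity: the read-weighted mean of bin median fluorescence, averaged across barcodes, then mapped linearly to the initial dataset scale. The tiles, fused to an estradiol-inducible synthetic transcription factor, sat at the yeast URA3 locus in GFP-reporter diploids. Cells spent 4 hours at 30 °C in SC with 1 uM beta-estradiol before sorting into 8 GFP:mCherry bins, and tiles below 50 reads were removed.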

On to “MTSPPLIKEEQTSSDESQIQQQSKTRRPKTRASVACTSCRDRRIRCVVPSGKK”, for which the “transcriptional activation domain activity” value stood at 55700.
For “FDHPLIPNRRKTYMRFEGCNPDMGCTIILRGADIITLRRLKKVMRFVTFMVRN” the value was 70100; for “MHPPTHYRLLSPPLFPYIFFFQVGFLLRFFSLFFSLVSLVLILCVTFFFFFFG”, 57500.
For “FKDNPKVIETKDKVMHYNTQLRYHGLRDHQVNIRNTRRHAIALLIWRVVQMVF” the value was 39500.
Next, “AKSAQRRADEPGVMSLGELAVLWVKRARHLGQSLLRVVLVSYAVDLPANCVAL”: 30100; “VRYKGGLVGKHFKSLAQVMPYLIYDLVPRSVLDGWVMIGRLVVLLWHTLIEDT”: 85100; “ESGCGREDMTVKSGIVFSFYFFCCLFFFLLSLFVCFPPPFFFILLFPIFIHLY”: 18900.
Regarding “LQTYMRSLEWTILTCSVIEIIEKLKMAPENMHELSPLCVKLIIKFCLTEILSY”, the “transcriptional activation domain activity” value came to 43400.
For “NVLYSRLSILSSLITLSWFLTAHILEYTSIHTCRFSSPHIWWLTFGILCIMYL” the value was 51600; for “MWEVLWAFSFLAGDIFVFFLSLALYIYPNHLVSPLLPGCVKPPVGMYWFLVFQ”, 44000; for “EPPPPPPEPEPQPPPKAEPPPEPEPEPVPKAEAPPPPPREEPPPPKKAPPPPK”, 44000.
Take “LFGPLDFLDFLDFLDFLDFLDFLDFLDFLDLWTFWPWTFWTVGLFGLLDFLTF”: the “transcriptional activation domain activity” value was found to be 46300.
As for “STSIRWEIFYARFFIMMLFYTIVGLFLTIACFSLRYHLFIWTVFSPKLLFFFV”, the “transcriptional activation domain activity” value came out at 48800.
Next, “SYYNLLCFSLCVRVCVCFVLLIILSFVSLLCFSFLLCFHCVLPFFFFFVFFFF”: 49200; “MIRFPCLLLYIFAMVYLGVLFFSFFDSCFFFFLHLLGAGWVVHFFLDIFFFYI”: 70600.
For “YIATGRGFATTRISFSILYSRFAGPSIYMGMRNLLLLLYATIAIWMPHLIYFW” the value was 48100.
Next, “AYANDKESTREKFILVVWIGPQCKVMRKAKVSVHAADVKTTLRVYSIEVAARE”: 35700.
Take “MCLLGDGRHPEFFYFLFFIPFDFLLHLLFYPRAFSRYLFIWMGCLNCFYFGLA”: the “transcriptional activation domain activity” value was determined as 56200.
For “FPEMITILIFTWSHNPLPHLVWHNQQECGSSLSTRFLCIFAVILCIWFVKRVF” the value was 59700; for “HCNGLLGNADLFEDPYQDELTSELHVLVTERLVNSWKDTILQQLCSCQDTTLS”, 83700; for “AASQNVDAQPKPKPAQDNDLESESGTSSSSSSSSESGSESDSGSDDGSASGSG”, less than 6570.
Next, “SGSNINNNDNVKLPSNFKNYYDPPMSSLDISMDVPDIFGSLDFFDYDLLFQND”: 179000; “EVDMTPADALDDFDLEMLGDVESPSPGMTHDPVSYGALDVDDFEFEQMFTDAL”: 112000; “LLTFLLFSIFFFERLPHLYRSISLLLRPCFRLNIHFIFLILSRVFMYGSYGSF”: 55300.
Next, “SLLVLCECLLMTIGVVFTTPHVDFIYRCVNTVTPTTMVYFVVCVLFNHLVILL”: 73100.
For “IQTYEIVGLTSCSLNVVLLPFAFYLVTLCFKTSERSPLLSMLCRLFFLPLTCG”, the “transcriptional activation domain activity” value was determined as 45100.
As to “VAKCFEKVKALIGTFDLDVGRVLDVTLDVFASLLVKHHKFFIKLLRCSYWWPV”, the “transcriptional activation domain activity” value is 83300.
On to “ASKEGEREKEGGREKEGNEGKKEGDKEEGEKKEGTDKEEEEKGGEKGKGSGEE”, for which the “transcriptional activation domain activity” value stood at 47900.
For “LLSGRLFLGFYAAKNILRLARAFAATRQVIYDLGKFYRSPLTAPDRIAHLFPS”, the “transcriptional activation domain activity” value amounted to 47000.
“SVYALVHFGAFYRSSHGPIRMLALHIQAFYNLCSLLFSWFAIANLWLTFSIII”: the “transcriptional activation domain activity” value came out at 67600.
For “LPLIQRFLIIAPAVIFYSYVYIVPTARRLQLRVCIRNWLGRWYVHLPVLSRSH” the value was 57400.
For “FCRALIHSQGEGPKSIYESSVISLTEAARAIINISRRSFTLHQTLTCRMWYFL” the value was 49900; for “VGAVMVRGQDYVPAFDVAPDWESYDYAKLDPTNDDDKEFINNMWAWDKPVSVN”, 57300.
For “RVFTVPGKCFFDALAADSTDASCTEESLKKIWNELHTTSSEIEPWSNGYIDIS”, the “transcriptional activation domain activity” value amounted to 98000.
Next, “MMLVGVVAFNVLKVIPVSDPRCIGVLLVGYVFQGLGFFMTFFYLAIYILRIMT”: 43600; “LILRMQVATLTKLWGLPPEFEIVCRDIWALHLSLLPDPPPPEPYYFHERGDGM”: 34400.
For “MIHYPPLLQSPRLVCTLLCSVDVIWLWFNHLFTLFITWRGVLFFLSFFTLLFF” the value was 51600.
Next, “FGFVFFVASLENGHYKFQFTNFAWTHMALYLIVCQAHFVMNNIFEGMIWFFLP”: 66100; “RYLYAAMNLLSIINPIFSLIQFVIACFLVAGNLSLVYVRVWGPIVLLSLFLFD”: 45800.
In the case of “MLARFKWSMWRMSLVRALRASLNITLFFYFLFPPRYSYVFLFLFLSFFLFFFS”, the “transcriptional activation domain activity” value amounted to 32500.
Consider “ASEKKEASQRPPPAVEKKTVPKPSSKPENRPGPSKPVVPKADSKKEAPKPAPS”, for which the “transcriptional activation domain activity” value was determined as 9920.
In the case of “TQATIVGDFFVCLMDVAGHDLAILLINWRAQTGTWLIFDSLEPLMWPHRITLV”, the “transcriptional activation domain activity” value was determined as 40300.
For the sequence “ILDDFFNDGACNEINVILDKAKVRRDFLDYFMPEKEVKAEGDRSIVYILSNPK”, the “transcriptional activation domain activity” value turned out to be 59200.
Next, “LFLMVWYLLMFSFDKKAIEHAWGLMGLLSKLAQSLSLRKFVHSEILAHHLIGS”: 80300; “CCMVWGRRWLIVLFPIFCLITVFVFKILEVFTGAFSWVENVRFLVVYLSCILA”: 34800; “SSCAPIPMVDFDINESNMVMGNYFDDFASFMDNVPIPNSVFSPSYQPLFAFLP”: 114000.
For “ILFMLFYYLSIYFIGTLGGIWLATYIMSFRENLVIQLVIARVCFIVALGVVMA” the value was 35400.
For “VERCHRNIVTNGCAVFQAGGLVVVLVEVNRKSYLASIVPVIVNAILNEHQIIV” the value was 40900; for “LYLSVLYIIVFTFLPGYTFIFTLTYGYGFAARGLSFLALGVGFLSSLILVIPV”, 46500.
On to “LLWSYLLPLFFSLLNELCKRFLPFPLFPLFFYIPCAFYPSPTLSVCSHPLLFI”, for which the “transcriptional activation domain activity” value worked out at 61500.
Next, “AGLTLPRTSDYSLFYYFLLWFTLFGLAMLFIIIHGIDYVSWPRLIPLTDIIYY”: 17600.
With “MVLHMRGHVQNKIKITLFTAFFFFVQIRSLGWILFLGFSFSALFFPIFFIFFI”, the “transcriptional activation domain activity” value came out at 55000.
For “LNGRRMMHEPLVYDMYEPQTPLIIIARVGVRLVFIVAKIGELPHCFIDEPPQQ” the value was 23200; for “RGEILESKFGRSSKPSPRILIVSNSKFYIVAQALVNHQVQISVERSVPLGAIK”, 51900.
“QYTKLFFFFFLWPLPSLSLLHLPHFSCSLFPFFPTFAPPFSLSLYLSQSFLFL”: the “transcriptional activation domain activity” value is 54900.
As to “YHTRNRLLLLCAQAHELAVLGVRELARCLRYLPKVHYMPVHWSTIFTWAEFCA”, the “transcriptional activation domain activity” value came out at 75600.
For “ERKRRAKQKEKEERKKKKKKNANSKDARQRSESSSRREKRKDEDSDDEEEEGG” the value was 35700; for “MTWRGLSLLLSVLLITWCDPAFFPPVYIQFLFIFIFAWLHLIFLFLIQYLGCI”, 37900; for “ATAAAAVKSPRSKSKEPKKSLDAAAAVAATSPAPVAAEEPAAAAVVEEPAKPA”, 41400.
Next, “AASETTAKKSRGRKRKTVPEPDCDDEDNTGAARCSQPRSRKRARTTAPAEPRE”: 12200; “LLLLLVYSNVALLVYHAPTYTRPFDMALIHAPLRFFMILPLSLLFPYSLFITL”: 57700; “VAIFTDVKNDHLMPNFNLHDQYCNSTNHDSHNHNNTVPDSFSQLMSHLSEIDC”: 27700.
Next, “KLGPTPQCLDGFFFFSLLALASLHPVSPCLLFFFFFLLWFPSSFFWPSVLQVQ”: 62500; “FFLFLFFPFSFSFLFFSFFHFLPMLAHCYNGVTISVSLWFPLILASLFRPFLL”: 64300.
For “SLLVWEFCLRHPEVRDVCDLGQMIFWNNKGAFYFTAFMFILNNTFIQGLHCLV”, the “transcriptional activation domain activity” value is 72600.
For “MISIPFPFHFIFKYVWWYYHVLYCLLACLLACCSCTYMFYLPVLLMLLLLFGC” the value was 41900; for “GSEDRRKSSRSRDRRERRSRSRDKSHRDRERERDKDRERRHRDHEPRHSHRDR”, 43300.
Next, “SRPPRPSASSSTTPRARSRSTARPSRARWPRPRCPSSGGCTRACRTRRCTRRM”: 45300; “LGVSAGAGLYPLQDKKREEEEDGVRGFVREGLGDLSCFIGSSVPLTAKKVLEA”: 75700; “EGAASGTEEAPKPKKKKKQQPRKSKPRIDAASGTEAEPNAATESEAPAAAGAA”: 16600.
For “HCLTFHQTSKLTHILLTYRQSILVTVYSHLLLLDHSSQVWWRWMNIFFTLVIW” the value was 69500.
On to “YVLATCYPKWVYEVLMATRGRIWCVLILLAYPFFAVGVGVIVCVMGLLVAAWI”, for which the “transcriptional activation domain activity” value came out at 35800.
Next, “GSEEDAARAASTSRKRRRASAPRTGDGSDDERESSRAEASAGAGAGAEAKPRR”: 18600; “KCSKVEPWVINVAAVFPSVFLLGFVENFFWFRRMMLGKGCLRFGTVCWALLFI”: 65800.
